Measurements as given in US20240376205A1 (Hoffmann-La Roche, published 2024).
Blank lines part the entries; values can stand above or below the binder they belong to.

Assays:
[1] = target: T1, OneArmed-huPD-L1_ECD_Fc_LALAPG (P1AF6937) (human, UniProt Q9NZQ7 18-238); assay: SPR, Fab fragment, as in Example 2 a)
T1 construct: range 18-238; also called huPD-L1-Fc; huPD-L1(ECD)-huFc

[2] = target: T2, OneArmed-cyPD-L1_ECD_Fc_LALAPG_avi_his (P1AF6938) (cynomolgus); assay: SPR, Fab fragment, as in Example 2 a)
T2 construct: also called cynomolgus PD-L1-Fc; cynoPD-L1 (ECD)-huFc

[3] = target: T1, OneArmed-huPD-L1_ECD_Fc_LALAPG …; assay: SPR, Dutaflip Fab fragment without IFN-α2 fusion, analyte P1AF6937

Kd [1]: 0.6 nM | koff [1]: 0.00012 s⁻¹ | kon [1]: 200000 M⁻¹ s⁻¹ | Kd [2]: 0.9 nM | koff [2]: 0.00015 s⁻¹ | kon [2]: 160000 M⁻¹ s⁻¹
B1: anti-huPD-L1 M14 Fab (P1AI3438) (Fab, V domains shown)
VH: MTQLVESGGGLVQPGGSLRLSCAADHTTEYNAMSWVRQAPGKGLEWVSAISGSGGSTYYADSVKGRFTISRDNSKNTLYLQMNSLRAEDTAVYYCARDLGFMDVWGQGTLVTVSS
VL: DIQMTQSPSSLSASVGDRVTITCRASQSISSYLNWYQQKPGKAPKLLIYDASYHEFGVPSRFSGSGSGTDFTLTISSLQPEDFATYYCQQSYSTPWTFGQGTKVEIK
notes: Tested as Fab fragment

Kd [3]: 6 nM
B2: Dutaflip Fab fragment of P1AH1108 (Fab, V domains shown)
VH: MSQLVESGGGLVQPGGSLRLSCAANNDIEFNAMSWVRQAPGKGLEWVGSISPKGGSKSIHRKFQGRFTISRDNSKNTLYLQMNSLRAEDTAVYYCARDLGFMDIWGQGTLVTVSS
VL: KTQMTQSPSSLSASVGDRVTITCDGTYGISNELAWYQQKPGKAPKLLIYDGEYHDFDVPSRFSGSGSGSDFTLTISSLQPEDFATYYCQQYGNWPHTFGQGTKVEIK
notes: Dutaflip Fab fragment without IFN-α2 fusion, expressed in E. coli

Kd [3]: 37 nM
B3: Dutaflip Fab fragment of P1AH1111 (DutaFab E06P07) (Fab, V domains shown)
VH: ARQLVESGGGLVQPGGSLRLSCAASGFHFEEQAMSWVRQAPGKGLEWVGSISPKGGSKSLNRNFNGRFTISRDNSKNTLYLQMNSLRAEDTAVYYCAKDIGFMDGWGQGTLVTVSS
VL: YQMTQSPSSLSASVGDRVTITCHGHVFISNYLAWYQQKPGKAPKLLIYDGEWRDFGVPSRFSGSGSDDSFTLTISSLQPEDFATYYCQQYSNWPHTFGQGTKVEIK
notes: Fab fragment without IFN-α2 fusion, expressed in E. coli
